Test results published in publication PMC2912409.

Assays:
Assay in all cases: ITC
DB_E203A = DB_E203A (human, UniProt P03372 176-250, E203A)
DB_K210A = DB_K210A (human, UniProt P03372 176-250, K210A)
DB_D190A = DB_D190A (human, UniProt P03372 176-250, D190A)
DB_R211A = DB_R211A (human, UniProt P03372 176-250, R211A)
DB_K206A = DB_K206A (human, UniProt P03372 176-250, K206A)
DB_AA = DB_AA (human, UniProt P03372 176-250, H196A;E203A)
DB_S201A = DB_S201A (human, UniProt P03372 176-250, S201A)
DB_Y197A = DB_Y197A (human, UniProt P03372 176-250, Y197A)
Sequence of DB_Y197A (P03372 176-250 Y197A): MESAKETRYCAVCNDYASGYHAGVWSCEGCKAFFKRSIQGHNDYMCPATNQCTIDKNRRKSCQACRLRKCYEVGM

DB_H196A = DB_H196A (human, UniProt P03372 176-250, H196A)
Sequence of DB_H196A (P03372 176-250 H196A): as the sequence (P03372 176-250 Y197A) above, with H21A, A22Y counted along it

DB_S193A = DB_S193A (human, UniProt P03372 176-250, S193A)
Sequence of DB_S193A (P03372 176-250 S193A): as the sequence (P03372 176-250 Y197A) above, with S18A, A22Y counted along it

Sequence of DB_S201A (P03372 176-250 S201A): as the sequence (P03372 176-250 Y197A) above, with A22Y, S26A counted along it
Sequence of DB_AA (P03372 176-250 H196A/E203A): as the sequence (P03372 176-250 Y197A) above, with H21A, A22Y, E28A counted along it
Sequence of DB_R211A (P03372 176-250 R211A): as the sequence (P03372 176-250 Y197A) above, with A22Y, R36A counted along it
Sequence of DB_K210A (P03372 176-250 K210A): as the sequence (P03372 176-250 Y197A) above, with A22Y, K35A counted along it
Sequence of DB_K206A (P03372 176-250 K206A): as the sequence (P03372 176-250 Y197A) above, with A22Y, K31A counted along it
Sequence of DB_D190A (P03372 176-250 D190A): as the sequence (P03372 176-250 Y197A) above, with D15A, A22Y counted along it
Sequence of DB_E203A (P03372 176-250 E203A): as the sequence (P03372 176-250 Y197A) above, with A22Y, E28A counted along it

B1: ERE duplex (dsDNA)
DNA 1: CCCAGGTCACAGTGACCTGCG
DNA 2: CGCAGGTCACTGTGACCTGGG
Q: Which Kd (DB_E203A) does the source give for B1 here?
A: The Kd was 172 ± 48 nM.

Q: What about the Kd (DB_K210A) of the same binder?
A: Its Kd is 326 ± 11 nM.

Q: What about the Kd (DB_D190A) of the same binder?
A: The Kd was 67 ± 6 nM.

Q: And the Kd (DB_R211A)?
A: Its Kd is 745 ± 76 nM.

Q: What about the Kd (DB_K206A) of the same binder?
A: The Kd was 313 ± 6 nM.

Q: And the Kd (DB_AA)?
A: The Kd was 387 ± 90 nM.

Q: And the Kd (DB_S201A)?
A: The Kd was 119 ± 9 nM.

Q: And the Kd (DB_Y197A)?
A: Its Kd is 316 ± 7 nM.

Q: And the Kd (DB_H196A)?
A: The Kd was 190 ± 24 nM.

Q: And the Kd (DB_S193A)?
A: The Kd was 102 ± 10 nM.
